Measurements taken from US20100015637A1 (AbbVie / Abbott, published 2010).
Each block holds one molecule with its values, some of them ahead of it.

Tests used:
[1] = molecular target: human PlGF-1 comprising amino acids 1-137 produced in human embryonic kidney cells (human) (UniProt P49763); assay: Format 1 …, capture 2-826-335, detection 1-255-713; sFlt-1 920 pmol/L (ratio 30)
[2] = molecular target: human PlGF-1 comprising amino acids 1-137 produced in human embryonic kidney cells (human) (UniProt P49763); assay: Format 2 …, capture MAb264, detection Pb264; sFlt-1 153 pmol/L (ratio 5)
[3] = molecular target: human PlGF-1 comprising amino acids 1-137 produced in human embryonic kidney cells (human) (UniProt P49763); assay: Format 3 Quantikine ELISA, capture MAb264, detection Pb264; sFlt-1 307 pmol/L (ratio 10)
[4] = molecular target: human PlGF-1 comprising amino acids 1-137 produced in human embryonic kidney cells (human) (UniProt P49763); assay: Format 3 Quantikine ELISA, capture MAb264, detection Pb264; sFlt-1 9200 pmol/L (ratio 300)
[5] = molecular target: human PlGF-1 comprising amino acids 1-137 produced in human embryonic kidney cells (human) (UniProt P49763); assay: Format 3 Quantikine ELISA, capture MAb264, detection Pb264; sFlt-1 153 pmol/L (ratio 5)
[6] = molecular target: recombinant human PlGF-1 (comprising amino acids 1-131) expressed in E. coli (R&D Systems) (human) (UniProt P49763); assay: … sandwich, capture MAb255, detection pAb264; antigen 250 pg/mL
[7] = molecular target: recombinant human PlGF-1 (comprising amino acids 1-131) expressed in E. coli (R&D Systems) (human) (UniProt P49763); assay: … sandwich, capture MAb255, detection pAb264; antigen 60 pg/mL
[8] = molecular target: T1, human PlGF-1 comprising amino acids 1-137 produced in human embryonic kidney cells (human, UniProt P49763 19-221); assay: … sandwich, capture MAb255, detection pAb264; antigen 15 pg/mL
T1 construct: Mature human PlGF-1 with 6xHis tag; also called HEK (1-137); full length HEK human PlGF-1 (1-137)
T1 sequence: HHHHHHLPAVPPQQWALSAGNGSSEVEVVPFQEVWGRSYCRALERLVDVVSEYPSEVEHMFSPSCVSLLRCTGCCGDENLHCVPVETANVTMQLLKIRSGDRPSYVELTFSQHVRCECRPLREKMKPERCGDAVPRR

[9] = molecular target: T2, human PlGF-1 fragment (comprising amino acids 17-131) produced in human embryonic kidney cells (human, UniProt P49763 35-221); assay: as above
T2 sequence: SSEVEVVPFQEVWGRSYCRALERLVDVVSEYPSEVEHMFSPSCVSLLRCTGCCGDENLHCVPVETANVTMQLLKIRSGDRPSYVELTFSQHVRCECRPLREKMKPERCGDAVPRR

[10] = molecular target: T3, CHO human PlGF-1 fragment (comprising amino acids 17-131; ATCC PTA-8540) (human, UniProt P49763 35-221); assay: as above
T3 sequence: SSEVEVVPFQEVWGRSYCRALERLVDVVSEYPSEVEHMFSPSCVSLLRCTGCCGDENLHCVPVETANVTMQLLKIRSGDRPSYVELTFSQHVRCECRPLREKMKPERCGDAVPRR

[11] = molecular target: T4, CHO human PlGF-1 comprising amino acids 1-137 (human PlGF-1-His (1-131), CHO 6305) (human, UniProt P49763 19-221, N-glycans at N21 (completely glycosylated) and N89 (partially glycosylated)); assay: as above
T4 construct: Mature human PlGF-1 with 6xHis tag (137 amino acids); also called CHO (1-137)
T4 sequence: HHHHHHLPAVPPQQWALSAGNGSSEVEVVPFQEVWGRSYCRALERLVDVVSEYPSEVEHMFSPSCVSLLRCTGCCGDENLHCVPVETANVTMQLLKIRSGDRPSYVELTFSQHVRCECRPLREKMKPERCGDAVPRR

[12] = molecular target: T1, human PlGF-1 comprising amino acids …; assay: … sandwich, capture MAb255, detection MAb826; antigen 60 pg/mL
Procedure, shortened: (§1)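 Values are chemiluminescent relative light units (RLU) from a sandwich immunoassay of human PlGF-1 antigen preparations, some of them recombinant forms made in CHO cells. Antigen levels ran from 0 to 1500 pg/mL. Capture was by a monoclonal anti-human PlGF-1 antibody bound to magnetic microparticles, and detection was by an acridinium ester-labeled monoclonal anti-human PlGF-1 antibody.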

[13] = molecular target: T2, human PlGF-1 fragment (comprising amino …); assay: as above
Procedure, shortened: as §1

[14] = molecular target: T3, CHO human PlGF-1 fragment (comprising …); assay: as above
Procedure, shortened: as §1

[15] = molecular target: T4, CHO human PlGF-1 comprising amino acids …; assay: as above
Procedure, shortened: as §1

[16] = molecular target: recombinant human PlGF-1 (comprising amino acids 1-131) expressed in E. coli (R&D Systems) (human) (UniProt P49763); assay: … sandwich, capture MAb255, detection MAb826; antigen 60 pg/mL
[17] = molecular target: T2, human PlGF-1 fragment (comprising amino …); assay: … sandwich, capture MAb255, detection pAb264; antigen 250 pg/mL
[18] = molecular target: T3, CHO human PlGF-1 fragment (comprising …); assay: as above
[19] = molecular target: T4, CHO human PlGF-1 comprising amino acids …; assay: as above

- % Inhibition [1]: 90.7%
- PlGF-1 Measured [1]: 95.1 pg/mL
- % Inhibition [2]: 64.9%
- PlGF-1 Measured [2]: 276 pg/mL
- % Inhibition [3]: 32.6%
- PlGF-1 Measured [3]: 583 pg/mL
- % Inhibition [4]: 82.2%
- PlGF-1 Measured [4]: 154 pg/mL
- % Inhibition [5]: 24.6%
- PlGF-1 Measured [5]: 652 pg/mL
Molecule: native sFlt-1, isolated from human placental tissue (from UniProt P17948 27-687) (receptor)

- RLU [6]: 543000 RLU
- RLU [7]: 161000 RLU
- RLU [8]: 46700 RLU
- RLU [9]: 32900 RLU
- RLU [10]: 28700 RLU
- RLU [11]: 26400 RLU
- RLU [12]: 101000 RLU
- RLU [13]: 57900 RLU
- RLU [14]: 42100 RLU
- RLU [15]: 42200 RLU
- RLU [16]: 83200 RLU
- RLU [17]: 363000 RLU
- RLU [18]: 283000 RLU
- RLU [19]: 226000 RLU
B1: monoclonal antibody 1-255-713 (produced by murine hybridoma cell line 1-255-713, ATCC PTA-8536) (antibody, mouse IgG2a, V domains shown)
VH: QVHLQQSGAELMKPGASVKISCKATGYTFSSYWIEWVKQRPGHGLEWIGEILPGSVSNNFNEKFKDKATLTADPSSNTAYIQVSSLTSEDSAVYYCARSTGFYYGGNYFDHWGQGTTLAVSS
VL: DVVMTQTPLSLPVSPGDQASISCRSSQSLVHSNGHTYLHWYLQKPGQSPKLLIYKVSNRFSGVPDRVSGSGSGTDFTLKISRVEAEDLGVYFCSQSTHVPPTFGGGTKLEIKR
notes: also called MAb255
